Reference: doi:10.1101/2021.08.02.454712

Biological target: recombinant Heme Detoxification Protein (PfHDP) (Plasmodium falciparum) (UniProt Q8IL04)
Experiment: SPR

Question: With “recombinant C-terminal Plasmodium falciparum exportin 2 (Pfexp-2), amino acids 139-285 (domain or fragment)” as the substance, how does the Kd read?
Answer: 1100 nM
